Source: paper PMC10673981

Target: retinal guanylate cyclase GC1, eGFP fusion (mGFP-GC1 cells) (human) (UniProt Q02846)
Chain of UniProt Q02846 (Q02846 52-1103): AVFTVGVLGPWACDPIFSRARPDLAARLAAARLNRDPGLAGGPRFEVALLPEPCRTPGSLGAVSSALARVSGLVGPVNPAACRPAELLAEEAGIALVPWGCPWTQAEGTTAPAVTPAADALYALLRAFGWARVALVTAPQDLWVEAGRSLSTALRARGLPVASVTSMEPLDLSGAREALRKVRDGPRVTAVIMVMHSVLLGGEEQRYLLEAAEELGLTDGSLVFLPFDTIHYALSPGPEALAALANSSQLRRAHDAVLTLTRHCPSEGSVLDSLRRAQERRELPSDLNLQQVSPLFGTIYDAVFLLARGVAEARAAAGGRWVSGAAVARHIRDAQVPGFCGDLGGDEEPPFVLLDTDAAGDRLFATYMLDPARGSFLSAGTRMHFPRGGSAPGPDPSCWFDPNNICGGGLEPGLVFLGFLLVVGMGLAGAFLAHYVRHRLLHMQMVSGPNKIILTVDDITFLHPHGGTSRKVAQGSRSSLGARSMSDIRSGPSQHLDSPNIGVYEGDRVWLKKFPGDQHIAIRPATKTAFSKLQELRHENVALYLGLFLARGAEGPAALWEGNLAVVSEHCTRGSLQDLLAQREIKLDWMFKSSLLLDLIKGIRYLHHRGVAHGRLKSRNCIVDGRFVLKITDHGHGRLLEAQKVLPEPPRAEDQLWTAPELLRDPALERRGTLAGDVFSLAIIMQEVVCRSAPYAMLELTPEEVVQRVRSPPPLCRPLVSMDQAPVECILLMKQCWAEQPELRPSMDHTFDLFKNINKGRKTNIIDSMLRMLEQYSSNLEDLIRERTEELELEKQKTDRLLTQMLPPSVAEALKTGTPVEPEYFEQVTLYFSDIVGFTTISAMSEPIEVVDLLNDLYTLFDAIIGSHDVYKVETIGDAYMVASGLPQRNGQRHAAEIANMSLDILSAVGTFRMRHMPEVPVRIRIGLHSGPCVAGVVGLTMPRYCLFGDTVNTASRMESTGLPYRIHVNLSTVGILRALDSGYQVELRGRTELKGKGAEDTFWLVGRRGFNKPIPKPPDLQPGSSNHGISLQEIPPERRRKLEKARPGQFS

Row | EC50: GCAP1 concentration (0–20 µM) at which cGMP synthesis by GC1 in HEK293 cell membranes is half-maximal, at low Ca2+ (< 19 nM) [nM] | Substance
1 | 1550 | E111V-GCAP1 (cone-rod dystrophy-associated variant of human GCAP1) (from UniProt P43080 1-201) (natural protein)
2 | 1880 | Human myristoylated WT-GCAP1 (guanylate cyclase-activating protein 1) (from UniProt P43080 1-201) (natural protein)
